{
  "source": "the DeepSol protein solubility set",
  "data": [
    {"experiment": "soluble on expression in E. coli; label from the status in PepcDB or PDB records", "values": [
      {"sequence": "MSLNKAVLHDHLDGGLRAKTAKELAIKDSYKPLIEIEDIESFFNRESSTSLEDYLEAFVHTTALMSNYDNLERIAFEAAEDMMHFCGITLYESRYAPLYSVNNNLLIKDVLHAINSGFKQAENMYGIKSGLILCGMRNDKDNVSQVSEIAIDFKDQIIGFDIAMGPEYNFLPSLFADEFNKLKNNGINLTIHAGEGDGVNSIQDALDNGAKRIGHGVRIIEDIDTSSKKLGKTAEYVRNKQVPLMEVCITSNIHTNMYEEYNKHPIKDLIDLEFNVSINTDNRLMSNTSMKKEIDIAKNLGINNIDRILENSASYSFLNDFEGHHHHHH", "soluble on expression in E. coli": "soluble"},
      {"sequence": "MGSDKIHHHHHHMLLYIHGFNSSPFSDKAVITAKYMAQHHPSVIFHQPQLPNTPKAAMALLTTYVEAAIDAKEPLAYIGSSLGGYFASYLAETYGGKAVLVNPAVKPFELFDEFMGPQFNPYTEQHYLVVPEHKREVAEFNTAVIRNPDRFLVLLQTGDEVLDYREAVNKYHHCQLRIEAGGDHSFVGYESHLQTVSQFLHLP", "soluble on expression in E. coli": "not soluble"},
      {"sequence": "MEITWEKPKSSSHHRNPSFSSTLLDQIYRSIDDSSPPPPLESIKKKKHHHQQRNASLHEDREISPIYHRRSIAADFERSRRKTDFLRHSNSSSSDSSGFSSSESDSFHGRSKSSASPPSSSRQQPKPIRTSSVDHSSAVQKPKELGGFLRTKSKALKIYSDLKKVKQPISPGGRLATFLNSLFTNAATNPKKHKKTTTVAVVEEPHSSSTCSSASSFSRSCLSKTPSSSGKSKRSVRFCPVNVILDEDSSFTMPYAYNNERLYDNNEAKRVEEHRRVIQAAKDLLRTYHNKNKVTTTNINNVEEDDEDDAASCASSDLFELENLSAIGIERYREELPVYETTRLDNMNRVIATGLIV", "soluble on expression in E. coli": "soluble"},
      {"sequence": "MAQHTYDEESVQELLGWAKKMLETKNYPTEKYQVNACTSIIDGKLYLESLISMISKNWENPTFHPTIEQLWEYREKWEGQKE", "soluble on expression in E. coli": "not soluble"},
      {"sequence": "MGSDKIHHHHHHMSNTGSLSYLRILDFTGEIGPYAAKLYAGLGADVIHIEPIAGDTLRSTGPFFGNRPGKERSMQFIYYNAGKRGLVLDLKKEKGKEVFVDLCKGADILFESFTPGYLDELGLSFDVLSAANPKLVQTSITPFGSFGPYSTYPGSDLTCSALGGFLYLAGIDNDKPVRACDNQAYRMAEVYAAVGSSIALLFAQKTGVGQFVDVSCMEAVGMALETAAQCWDLEGTLRRGRGKEAGSATIHPCKDGFIAIVAIVGRNKTMWTPFVQWMKEEGVEEWELFDNDNWINASYRESKAGYELFCRIFERFTMKHTKQYLYDAGQAHRVAVSPVSNGKDLLENPQLNHHDFWQRLYHEPVGAEVVCPGAPYEFGHLKWRLGDFAPTFGQHTAEVLGECGYSRSEIDALDREGVVHVAKS", "soluble on expression in E. coli": "not soluble"},
      {"sequence": "MGSDKIHHHHHHMTDMTYDVEQDVVAESERISAIFSEVLDIGQVAATDNFFNLGGDSFDAIRVMSRLDGNLPIVALFEHPTAETLARFRLTEESLAITRLVPLFDQTKTNGPIVVICVPYGGGDPTAYRDLFNDHPDVRVFGVDFGDAEIHSPSDFSGLINTLVNEIEAIDAEQIIVYGHCAGAATAACLASAITFTTSAVSLVVAASNPVDDPDAAIHDAAMTSDADWGQYLRSLGAFNGLTDKETDAMLTKGRRDHFIATEAYRTLARQPARGIPAMLLLGDKDPATVKVEEIVNKWRKIIDLVKSANVTGGEHYFIRTHAQEVASKVLSFQLKHK", "soluble on expression in E. coli": "not soluble"},
      {"sequence": "MAHHHHHHMEKDGYTKLSEEEEQQLDNCRACMALTAVFMEEVMKPTEKLQHQLHQQQQQEGSAPRTPKNSDAVRSGERQRLVTNVHDAIDKLCDRVKERNNQVDASYDKGKEERDEKSESTEGGPIWYVSVNTAACEVALEEVSEALAREAFAQLLPERVAGTRGGGPSAVCEQENLCTARLSQHVKSEEEKAKAELEKEMRRQRELSRKNPKETLALQRAVAVGVGIMVIALWLRGRQSAKPEGDVKKD", "soluble on expression in E. coli": "not soluble"},
      {"sequence": "MAHHHHHHMSFKQVFLRDNEECQAFPWDALTHPSQSAGEERRTIHHHLAWPAVCEREEAVMGTQPARKVSELTSVSFFLQPPFAIPRRKTGRSSLGCRHDRPLYAAGSAGPRCGDKPTLFVGAAEADFCDDMGWRQRSNSPVSSVEHNAEDDGEDFDVEPVVLKRSLSEKDRRKRLHLSEMSARLCHAFAMKPFRLACGLGLDESDDGVGMENQSGWGAGEEAAVPLREKDDDDDTTPARQTAPISETQRGNTALNFTDNDLSVVRAIALALMEEGEKKRRQEMRRKTN", "soluble on expression in E. coli": "not soluble"}
    ]}
  ]
}
